From patent US7465453B2, “Polypeptide fragments of CKLF1” (Peking University, priority 2004, dated 2008)
Ends that are not written are not given here.

Columns and labels:
Format in all cases: cell-based
U937 cells = assay: Chemotaxis of U937 cells; details: for migration (chemotaxis) of U937 cells: C19, C27, RANTES: U937 cells stimulated by 30 ng/ml IFN-γ
Description: The chemotaxis assay was performed using a 48-well microchemotaxis chamber (Neutroprobe, Cabin John, Md., U.S.A.). U937 cells were stimulated by 30 ng/ml IFN-γ for 4 days because IFN-γ could increase the expression of chemokine receptors CCR1, CCR3, and CCR5 in U937 cells. Then part cells were incubated with mouse anti CCR5 100 μg/ml, and/or rat anti CCR3 10 μg/ml for 30 minutes at 37° C., and corresponding mouse IgG and rat IgG as controls. Chemoattractants RANTES, C19 and C27 were diluted in HEPES-buffered RPMI 1640 medium supplemented with 0.5% BSA to indicate concentration, and placed in the lower wells (28 μl/well). U937 cells stimulated by IFN-γ were resuspended in the same medium at 1×10^6 cells/ml and added to the upper wells (50 μl/well), which were separated from the lower wells by a polyvinylpyrrolidone-free polycarbonate filter with 5-μm pores pre-coated by 0.001% fibronectin. The chamber was incubated for 2 hours at 37° C. in 5% CO2 and 95% air. Filters were removed from the chamber, washed, fixed, and stained with Three Step Stain Set. Cells that migrated were counted in 5 randomly selected high power fields (400×) per well. The group with no Chemoattractants in the lower wells was used as a control. All samples were assayed twice at least. The chemotactic index (CI) was calculated from the number of cells that migrated to the control. Significant chemotaxis was defined as CI>2.

CCR4 [1] = molecular target: T1, CCR4 (Homo sapiens, UniProt P51679); assay: Chemotaxis assay (48-well microchemotaxis chamber) of HEK293 cells transfected with CCR4
T1 construct: The cDNA fragments covering the open reading frames for various chemokine receptors were obtained as follows; expressed in transfected cells; host or cells: HEK293 (transient, electroporation)
T1 sequence (P51679 1-360): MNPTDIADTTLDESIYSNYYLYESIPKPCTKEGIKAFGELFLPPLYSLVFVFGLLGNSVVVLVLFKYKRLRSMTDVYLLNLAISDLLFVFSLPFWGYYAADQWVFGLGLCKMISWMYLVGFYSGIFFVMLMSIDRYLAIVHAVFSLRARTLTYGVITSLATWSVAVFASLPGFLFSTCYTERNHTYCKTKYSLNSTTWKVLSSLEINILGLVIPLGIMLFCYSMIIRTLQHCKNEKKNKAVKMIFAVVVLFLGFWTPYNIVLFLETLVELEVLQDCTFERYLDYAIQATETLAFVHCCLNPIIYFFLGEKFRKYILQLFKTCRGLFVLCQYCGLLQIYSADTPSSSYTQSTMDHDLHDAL
Description: (§1) HEK293 cells were grown in RPMI 1640 supplemented with 10% heat-inactivated FBS, penicillin (100 U/ml) and streptomycin (100 μg/ml). Every 4×10^6 HEK293 cells in 400 μl were transiently transfected by electroporation with 15 μg of the expression plasmid at 120 V, 20 ms using an electric pulse generator (Electro Square Porator ECM 830, BTX, San Diego, Calif.), and calcium mobilization assay and chemotaxis assays were performed 48 hours later.
(§2) The chemotaxis assay was performed using a 48-well microchemotaxis chamber (Neutroprobe; Cabin John, Md., U.S.A.). Chemoattractants were diluted in HEPES-buffered RPMI 1640 medium supplemented with 0.1% BSA and placed in the lower wells (28 μl/well). HEK293 cells transfected with pcDI-CCR4, -CCR5 were resuspended in the same medium at 2×10^6 cells/ml and added to the upper wells (50 μl/well), which were separated from the lower wells by a polyvinylpyrrolidone-free polycarbonate filter with 8-μm pores. The chamber was incubated for 2 hours at 37° C. in 5% CO2 and 95% air. Filters were removed from the chamber, washed, fixed, and stained with Three Step Stain Set. Cells that migrated were counted in 5 randomly selected high power fields (400×) per well. The chemotactic index (CI) was calculated from the number of cells that migrated to the control. Significant chemotaxis was defined as CI>2. In some experiments, cells were pretreated with TARC, RANTES, purified CKLF-myc protein or secreted CKLF1 peptides for 30 min. at 37° C., or 100 ng/ml PTX (ALEXIS Biochemicals Corporation) for 6 hours at 37° C. prior to subsequent stimulations.

CCR6 = molecular target: T2, CCR6 (Homo sapiens, UniProt P51684); assay: Internalization of CCR6-EGFP in transiently transfected HEK293 cells; details: HEK293 cells transfected with pCCR6-EGFP; 37° C., 2 hours
T2 construct: The cDNA fragment covering the open reading frame for CCR6 chemokine receptor was cloned into pEGFP-N1 vector (CLONTECH); expressed in transfected cells; host or cells: HEK293 (transient)
T2 sequence (P51684 1-374): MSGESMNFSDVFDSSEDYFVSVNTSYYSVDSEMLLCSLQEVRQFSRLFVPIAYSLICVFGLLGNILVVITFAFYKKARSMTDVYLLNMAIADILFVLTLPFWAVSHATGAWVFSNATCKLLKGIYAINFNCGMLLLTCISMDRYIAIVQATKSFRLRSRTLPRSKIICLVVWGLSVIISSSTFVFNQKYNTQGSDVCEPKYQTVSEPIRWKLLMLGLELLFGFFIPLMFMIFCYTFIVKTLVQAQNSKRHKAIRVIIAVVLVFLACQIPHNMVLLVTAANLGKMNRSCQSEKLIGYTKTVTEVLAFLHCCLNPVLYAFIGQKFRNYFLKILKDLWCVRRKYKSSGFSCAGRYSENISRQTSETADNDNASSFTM
Description: (§3) The cDNA fragment covering the open reading frame for CCR6 chemokine receptor was cloned into pEGFP-N1 vector (CLONTECH). pCCR6-EGFP transiently expressing HEK293 cells were cultured in glass-bottom dishes in RPMI 1640 with 10% FBS. After 16-24 hours of serum starvation, cells were treated with CKLF1 C-terminal peptides or MIP3α at 37° C. for 2 hours. Cells were washed with cold PBS and fixed with 2% paraformaldehyde in PBS. The subcellular localization of CCR6-EGFP protein was visualized using a Leica TCS-NT confocal fluorescence microscope with a 63× oil immersion lens (Wetzler, Heidelberg, Germany). The excitation and emission wavelengths were 488 and 515-540 nm, respectively.

CCR5 [2] = molecular target: T3, CCR5 (Homo sapiens, UniProt P51681); assay: Calcium flux assay in CCR5-transfected HEK293 cells
T3 construct: The cDNA fragments covering the open reading frames for various chemokine receptors were obtained as follows; expressed in transfected cells; host or cells: HEK293 (transient, electroporation)
Description: (§4) The cDNA fragments covering the open reading frames for various chemokine receptors were obtained as follows. CCR4, CCR5 and CCR6 receptors were cloned from a K562 cell cDNA library by polymerase chain reaction (PCR). The primers were designed using the sequences from the following GenBank™ submissions: CCR4 (NM_005508.2), CCR5 (NM_000579) and CCR6 (AY242126). The fragments were cloned into an expression vector pcDI (modified in our lab from pcDNA3 vector (Invitrogen), in which the part between BgI II-Kpn I was replaced by the fragment of pCl vector (Promega) digested with BgI II-Kpn I) or pEGFP-N1 vector (CLONTECH) for efficient expression in HEK293 cells. The sequences coding receptors in expression plasmids were confirmed by DNA sequencing, which is consistent with the sequence submitted in GenBank™.
as §1
(§5) HEK293 cells transfected with pcDI-CCR4 or pcDI-CCR5 were grown in specialized glass-bottom microwell dishes (MatTek Corporation, U.S.A.) and loaded with 10 μM fluo-3/AM in HEPES-buffered saline at 37° C. for 1 hour in the dark. The cells were rinsed with HEPES-buffered saline and stimulated with 167 nM secreted CKLF1 peptides and 100 nM TARC or RANTES, respectively. Fluorescence was monitored at 488 nm (excitation wavelength) and 530 nm (emission wavelength) every 5 second using a Leica TCS-NT confocal fluorescence microscope with a 40× oil immersion lens (Wetzler, Heidelberg, Germany). The measurement was completed at room temperature and each field of cells was selected at random. Images were collected at 5 second intervals for 405 seconds. The images were analyzed for relative fluorescence using Leica confocal software. The relative fluorescence was determined using Microsoft Excel. All calcium flux assays were performed in the presence of extracellular calcium (in the absence of EDTA or EGTA) in the assay buffers. Therefore, both intracellular calcium release and extracellular calcium influx were analyzed.

CCR5 [3] = molecular target: T3, CCR5; assay: Chemotaxis assay (48-well microchemotaxis chamber) of HEK293 cells transfected with CCR5
Description: as §1
as §2, with “In some experiments, cells were pretreated with TARC, RANTES, purified CKLF-myc protein or secreted CKLF1 peptides for 30 min. at 37° C., or 100 ng/ml PTX (ALEXIS Biochemicals Corporation) for 6 hours at 37° C. prior to subsequent stimulations.” left out

CCR4 [4] = molecular target: T1, CCR4; assay: Calcium flux assay in CCR4-transfected HEK293 cells
Description: as §4, §1, §5

CCR4 [5] = molecular target: T1, CCR4; assay: Internalization of CCR4-EGFP in transiently transfected HEK293 cells; details: HEK293 cells transfected with pCCR4-EGFP; 37° C., 2 hours
Description: as §3, with “CCR4” for “CCR6”, “pCCR4-EGFP” for “pCCR6-EGFP”, “16 to 24” for “16-24”, “hours” for “hours of”, “TARC” for “MIP3α”, “CCR4-EGFP” for “CCR6-EGFP”

T3 sequence (P51681 whole entry, the tested form may be a part): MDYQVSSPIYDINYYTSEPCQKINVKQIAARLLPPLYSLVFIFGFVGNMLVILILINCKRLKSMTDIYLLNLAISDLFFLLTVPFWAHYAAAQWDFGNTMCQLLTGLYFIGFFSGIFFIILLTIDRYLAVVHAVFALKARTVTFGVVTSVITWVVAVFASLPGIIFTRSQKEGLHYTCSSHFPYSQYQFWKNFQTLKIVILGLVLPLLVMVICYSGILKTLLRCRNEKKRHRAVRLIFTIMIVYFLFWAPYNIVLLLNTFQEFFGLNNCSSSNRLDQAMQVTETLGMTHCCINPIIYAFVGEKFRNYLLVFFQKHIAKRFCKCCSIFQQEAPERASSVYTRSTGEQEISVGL

Molecule: CKLF1-myc protein: recombinant CKLF1-myc protein expressed in Drosophila S2 cells and purified from the supernatant (ALIYRKLLFNPSGPYQKKPVHEKKEVL; not fully specified)
- migration (chemotaxis) of U937 cells (U937 cells): can induce the chemotaxis
- migration (chemotaxis) of transfected cells (CCR4 [1]; CCR4-transfected HEK293 cells): could induce the chemotaxis

Molecule: MIP3α: chemokine used as comparison treatment in the CCR6-EGFP internalization assay [reference compound]
- internalization of CCR6-EGFP (CCR6): internalization of chemokine receptors induced by MIP3α

Molecule: RANTES: cognate ligand for CCR5 (peprotech), positive control [reference compound]
- calcium flux (CCR5 [2]; CCR5-transfected HEK293 cells, 167 nM C27 or C19, 100 nM RANTES): induced calcium flux
- desensitization of the receptor to subsequent stimulation with C27 and C19 (CCR5 [2]; CCR5 transfectants, pretreatment with 100 nM RANTES): desensitized the receptor
- migration (chemotaxis) of U937 cells (U937 cells): could induce migration
- chemotactic activity after neutralization of chemokine receptors (U937 cells; IFN-γ-stimulated U937 cells, mouse anti CCR5 and/or rat anti CCR3): obviously inhibited
- desensitization of the receptor to subsequent stimulation with the purified CKLF1-myc protein (chemotaxis) (CCR4 [1]; CCR4-transfected HEK293, pretreatment): could desensitize the receptor
- chemotaxis induced after PTX pretreatment (CCR5 [3]; CCR5-transfected HEK293 cells treated with 100 ng/ml PTX at 37° C. for 30 min): completely abolished by PTX
- desensitization of the receptor to subsequent stimulation with RANTES, C27 or C19 (chemotaxis) (CCR5 [3]; HEK293/CCR5, pretreatment 1 mM RANTES or 2 μg/ml C27 or C19, 37° C., 30 min): could desensitize the receptor

B1: TARC: cognate ligand for CCR4 (peprotech), positive control (protein)
chain: ARGTNVGRECCLEYFKGAIPLRKLKTWYQTSEDCSRDAIVFVTVQGRAICSDPNNKRVKNAVKYLQSLERS
- calcium flux (CCR4 [4]; CCR4-transfected HEK293 cells, 167 nM C27 or C19, 100 nM TARC): induced calcium flux
- desensitization of the receptor to subsequent stimulation with C27 and C19 (CCR4 [4]; CCR4 transfectants, pretreatment with 100 nM TARC): desensitized the receptor
- chemotaxis induced after PTX pretreatment (CCR4 [1]; CCR4-transfected HEK293 cells treated with 100 ng/ml PTX at 37° C. for 30 min): completely abolished by PTX
- desensitization of the receptor to subsequent stimulation with TARC, C27 or C19 (chemotaxis) (CCR4 [1]; HEK293/CCR4, pretreatment TARC or 2 μg/ml C27 or C19, 37° C., 30 min): could desensitize the receptor
- internalization of CCR4-EGFP (CCR4 [5]): internalization of chemokine receptors induced by TARC
